In paper PMC6100724, “Proteome‐wide analysis of phospho‐regulated PDZ domain interactions” (Molecular Systems Biology, 2018):
Blank lines part the entries; values can stand above or below the substance they belong to.

How the values were obtained:
[1] = target: FITC-HTNETEL, phosphomimetic (p-1) MCC peptide (human); assay: MST; FITC-labeled peptide fixed at 25-50 nM, DLG1 PDZ2 titrated (1:1 dilution series); 50 mM Tris-HCl pH 7.4, 0.1% Tween-20; KD from thermophoresis and T-Jump signal; n = 3
[2] = target: FITC-…, phosphomimetic (p-6) TANC1 peptide (human); assay: as above
[3] = target: Scribble PDZ1 (human, aa 719-829) (human) (UniProt Q14160); assay: ITC; iTC200, 25°C, 20 mM HEPES pH 7.4; protein 50-100 µM in the cell, 0.64-3 mM peptide in the syringe; single-site fit, stoichiometry fixed to 0.8-1.1; triplicate
Chain of Scribble PDZ1 (human, aa 719-829) (human) (Q14160 719-829): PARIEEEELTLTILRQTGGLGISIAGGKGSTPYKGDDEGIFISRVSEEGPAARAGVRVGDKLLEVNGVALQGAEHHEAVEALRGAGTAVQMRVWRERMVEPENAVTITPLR

Scribble PDZ1, 719-829 = Scribble PDZ1, 719-829 (UniProt Q14160); assay: ITC; conditions: reference: unphosphorylated …; sites S730
Chain of Scribble PDZ1, 719-829 (Q14160 whole entry, looked up, tested part not stated): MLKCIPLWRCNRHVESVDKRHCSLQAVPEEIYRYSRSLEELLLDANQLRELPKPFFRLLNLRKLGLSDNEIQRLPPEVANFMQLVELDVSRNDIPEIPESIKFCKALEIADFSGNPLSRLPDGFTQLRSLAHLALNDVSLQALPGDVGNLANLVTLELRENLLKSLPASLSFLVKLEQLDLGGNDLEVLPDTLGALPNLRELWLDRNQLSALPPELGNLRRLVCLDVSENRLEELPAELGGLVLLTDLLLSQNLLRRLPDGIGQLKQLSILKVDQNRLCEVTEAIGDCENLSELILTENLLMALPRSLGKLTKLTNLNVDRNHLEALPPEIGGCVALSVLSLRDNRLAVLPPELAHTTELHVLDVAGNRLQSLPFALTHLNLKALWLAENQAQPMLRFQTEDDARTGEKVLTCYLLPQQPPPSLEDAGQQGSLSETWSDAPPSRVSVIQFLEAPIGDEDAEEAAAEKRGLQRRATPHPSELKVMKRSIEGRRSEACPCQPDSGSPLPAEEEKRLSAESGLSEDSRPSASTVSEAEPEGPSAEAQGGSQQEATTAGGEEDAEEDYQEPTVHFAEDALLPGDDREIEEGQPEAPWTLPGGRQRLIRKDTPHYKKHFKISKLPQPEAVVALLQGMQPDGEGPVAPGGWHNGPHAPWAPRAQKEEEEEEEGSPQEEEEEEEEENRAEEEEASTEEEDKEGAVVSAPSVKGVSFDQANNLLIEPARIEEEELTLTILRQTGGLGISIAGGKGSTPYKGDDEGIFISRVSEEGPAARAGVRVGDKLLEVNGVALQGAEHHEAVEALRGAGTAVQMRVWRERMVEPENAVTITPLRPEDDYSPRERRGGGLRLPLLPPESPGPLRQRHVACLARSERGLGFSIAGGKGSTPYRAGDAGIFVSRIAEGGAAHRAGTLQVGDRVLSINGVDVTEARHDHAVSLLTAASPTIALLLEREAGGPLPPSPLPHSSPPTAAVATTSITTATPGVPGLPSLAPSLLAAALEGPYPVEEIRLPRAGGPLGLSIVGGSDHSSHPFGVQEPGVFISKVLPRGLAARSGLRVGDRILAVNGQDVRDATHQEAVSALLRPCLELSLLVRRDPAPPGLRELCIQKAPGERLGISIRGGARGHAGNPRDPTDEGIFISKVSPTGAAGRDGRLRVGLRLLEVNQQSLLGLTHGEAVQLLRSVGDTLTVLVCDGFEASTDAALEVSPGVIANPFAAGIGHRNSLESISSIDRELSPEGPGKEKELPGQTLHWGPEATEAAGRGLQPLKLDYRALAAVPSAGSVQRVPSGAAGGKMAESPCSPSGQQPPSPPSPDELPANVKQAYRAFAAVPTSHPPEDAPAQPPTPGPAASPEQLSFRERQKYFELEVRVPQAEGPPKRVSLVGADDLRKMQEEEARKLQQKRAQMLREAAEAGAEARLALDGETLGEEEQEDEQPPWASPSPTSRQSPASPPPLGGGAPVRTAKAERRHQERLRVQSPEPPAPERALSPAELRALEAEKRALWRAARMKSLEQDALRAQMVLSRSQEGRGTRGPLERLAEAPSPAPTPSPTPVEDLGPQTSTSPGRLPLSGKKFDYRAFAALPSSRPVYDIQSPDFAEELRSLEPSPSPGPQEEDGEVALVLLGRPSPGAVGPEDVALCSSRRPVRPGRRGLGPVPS

Chain of DLG1 PDZ2 (human DLG1 PDZ2 aa 311-407) (Q12959 311-407): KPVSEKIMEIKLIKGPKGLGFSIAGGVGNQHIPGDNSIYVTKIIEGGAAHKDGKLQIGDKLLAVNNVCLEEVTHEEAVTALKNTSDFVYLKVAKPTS

Kd [1]: 21 µM | Kd [2]: 5.1 µM
Substance: DLG1 PDZ2 (human DLG1 PDZ2 aa 311-407) (from UniProt Q12959 311-407) (domain or fragment)

Kd [3]: 1.2 µM
Substance: MAPK12 peptide … (unphosphorylated)

fold change (Scribble PDZ1, 719-829): stronger
Substance: RPS6KA2 C-terminal 9 residues (from UniProt Q15349) MKRLTpSTRL
